The target of test [1] is recombinant human IL-21 (rhIL-21) (human, UniProt Q9HBE4 30-162, limits assumed). Description: cell-based or functional assay.
Test [2] has as its target T1, Recombinant hIL-21-Fc (AcroBiosystems) (human, UniProt Q9HBE4 30-162).
T1 construct: bought; also called rhIL-21; not shown: Fc of the bought reagent, not described
Put plainly: SPR, Fab on captured rhIL-21-Fc. For orientation: In SPR one partner is held on a chip, and binding of the other changes the refractive index at the surface.

This is an account of results in patent publication EP4671273A1 (Anaveon AG, dated 2025).

recombinant human IL-21 (rhIL-21), sequence (Q9HBE4 30-162 limits assumed): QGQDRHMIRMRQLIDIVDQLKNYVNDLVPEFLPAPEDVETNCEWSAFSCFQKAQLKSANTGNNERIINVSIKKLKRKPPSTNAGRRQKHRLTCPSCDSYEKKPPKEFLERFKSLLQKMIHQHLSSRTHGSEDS
T1 sequence (Q9HBE4 30-162): as the sequence (Q9HBE4 30-162 limits assumed) above

B1: ZAP122 (antibody, human IgG1, V domains shown)
VH: QVQLQESGPGLVKPSETLSLTCTVSGGSISSDFWGWIRQPPGKGLEWIGYISSRGSTNYNPSLKRRVTISVDTSRNQFSLKLSSVTAADTAVYYCARSAGVTDFDFWGQGTLVTVSS
VL: DIQMTQSPSSVSASVGDRVTITCRASQGISSWLAWYQHKPGKAPKLLIYVASSLQSGVPSRFSGSGSGTDFTLTISSLQPEDFATYYCQQANSFPLTFGGGTKVEIK
Regarding B1, in test [1], the “% pSTAT3+ Jurkat cells, 0.1 nM rhIL-21 + 0 nM antibody” value came to 82%; the “% pSTAT3+ Jurkat cells, 0.1 nM rhIL-21 + 0.1012 nM antibody” value worked out at 33.3%; the “% pSTAT3+ Jurkat cells, 0.1 nM rhIL-21 + 0.1602 nM antibody” value came out at 33.2%; the “% pSTAT3+ Jurkat cells, 0.1 nM rhIL-21 + 0.2536 nM antibody” value was determined as 18.2%. Further, in test [1], the “% pSTAT3+ Jurkat cells, 0.1 nM rhIL-21 + 0.4015 nM antibody” value is 22.8%; the “% pSTAT3+ Jurkat cells, 0.1 nM rhIL-21 + 0.6355 nM antibody” value was 33%; the “% pSTAT3+ Jurkat cells, 0.1 nM rhIL-21 + 1.006 nM antibody” value was found to be 10.8%; the “% pSTAT3+ Jurkat cells, 0.1 nM rhIL-21 + 1.5925 nM antibody” value was 9.01%. In addition, in test [1], the “% pSTAT3+ Jurkat cells, 0.1 nM rhIL-21 + 2.5209 nM antibody” value turned out to be 6.78%; the “% pSTAT3+ Jurkat cells, 0.1 nM rhIL-21 + 3.9906 nM antibody” value was 5.32%; the “% pSTAT3+ Jurkat cells, 0.1 nM rhIL-21 + 6.3171 nM antibody” value came out at 8.64%; the “% pSTAT3+ Jurkat cells, 0.1 nM rhIL-21 + 10 nM antibody” value turned out to be 6.63%.

B2: ZAP122m19 Fab (Fab, V domains shown)
VH: QVQLQESGPGLVKPSETLSLTCTVSGGSISSDFWGWIRQPPGKGLEWIGYISSRGSTNYNPSLKRRVTISVDTSRNQFSLKLSSVTAADTAVYYCAASAGVTDFDFWGQGTLVTVSS
VL: DIQMTQSPSSVSASVGDRVTITCRASQGISSWLAWYQHKPGKAPKLLIYVASSLQSGVPSRFSGSGSGTDFTLTISSLQPEDFATYYCQQANSFPLTFGGGTKVEIK
notes: Fab
Consider B2, for which, in test [2], the Kd (in general, the constant that tells how readily two partners part at equilibrium) was 6.08 nM; the koff (as a rule, a measure of how fast the partners let go of each other) stood at 0.000775 s⁻¹; the kon – broadly, a measure of how fast the partners come together – amounted to 127000 M⁻¹ s⁻¹.

B3: ZAP122m23 Fab (Fab, V domains shown)
VH: QVQLQESGPGLVKPSETLSLTCTVSGGSISSDFWGWIRQPPGKGLEWIGYISSRGSTNYNPSLKRRVTISVDTSRNQFSLKLSSVTAADTAVYYCARSAGVADFDFWGQGTLVTVSS
VL: DIQMTQSPSSVSASVGDRVTITCRASQGISSWLAWYQHKPGKAPKLLIYVASSLQSGVPSRFSGSGSGTDFTLTISSLQPEDFATYYCQQANSFPLTFGGGTKVEIK
notes: Fab
As for B3, in test [2], the Kd was 0.137 nM, the koff was found to be 3.29e-05 s⁻¹ and the kon was determined as 240000 M⁻¹ s⁻¹.

B4: ZAP122p1 Fab (Fab, V domains shown)
VH: QVQLQESGPGLVKPSETLSLTCTVSGGSISSDFWGWIRQPPGKGLEWIGYISSRGSTNYNPSLKRRVTISVDTSRNQFSLKLSSVTAADTAVYYCARSAGVTDFDFWGQGTLVTVSS
VL: DIQMTQSPSSVSASVGDRVTITCRASQGISSWLAWYQHKPGKAPKLLIYVASSLQSGVPSRFSGSGSGTDFTLTISSLQPEDFATYYCQQAQSFPLTFGGGTKVEIK
notes: Fab
In the case of B4, in test [2], the Kd was 0.0386 nM, the koff came to 1.38e-05 s⁻¹ and the kon is 357000 M⁻¹ s⁻¹.

B5: ZAP122m22 Fab (Fab, V domains shown)
VH: QVQLQESGPGLVKPSETLSLTCTVSGGSISSDFWGWIRQPPGKGLEWIGYISSRGSTNYNPSLKRRVTISVDTSRNQFSLKLSSVTAADTAVYYCARSAGATDFDFWGQGTLVTVSS
VL: DIQMTQSPSSVSASVGDRVTITCRASQGISSWLAWYQHKPGKAPKLLIYVASSLQSGVPSRFSGSGSGTDFTLTISSLQPEDFATYYCQQANSFPLTFGGGTKVEIK
notes: Fab
B5: in test [2], the Kd stood at 8.73 nM, the koff amounted to 0.0034 s⁻¹ and the kon was 389000 M⁻¹ s⁻¹.

B6: ZAP122m26 Fab (Fab, V domains shown)
VH: QVQLQESGPGLVKPSETLSLTCTVSGGSISSDFWGWIRQPPGKGLEWIGYISSRGSTNYNPSLKRRVTISVDTSRNQFSLKLSSVTAADTAVYYCARSAGVTDFAFWGQGTLVTVSS
VL: DIQMTQSPSSVSASVGDRVTITCRASQGISSWLAWYQHKPGKAPKLLIYVASSLQSGVPSRFSGSGSGTDFTLTISSLQPEDFATYYCQQANSFPLTFGGGTKVEIK
notes: Fab
B6: in test [2], the Kd is 3.01 nM, the koff came to 0.000701 s⁻¹ and the kon was determined as 233000 M⁻¹ s⁻¹.

B7: ZAP122m20 Fab (Fab, V domains shown)
VH: QVQLQESGPGLVKPSETLSLTCTVSGGSISSDFWGWIRQPPGKGLEWIGYISSRGSTNYNPSLKRRVTISVDTSRNQFSLKLSSVTAADTAVYYCARAAGVTDFDFWGQGTLVTVSS
VL: DIQMTQSPSSVSASVGDRVTITCRASQGISSWLAWYQHKPGKAPKLLIYVASSLQSGVPSRFSGSGSGTDFTLTISSLQPEDFATYYCQQANSFPLTFGGGTKVEIK
notes: Fab
As to B7, in test [2], the Kd was 0.0435 nM, the koff was determined as 1.94e-05 s⁻¹ and the kon was found to be 446000 M⁻¹ s⁻¹.

B8: ZAP122m25 Fab (Fab, V domains shown)
VH: QVQLQESGPGLVKPSETLSLTCTVSGGSISSDFWGWIRQPPGKGLEWIGYISSRGSTNYNPSLKRRVTISVDTSRNQFSLKLSSVTAADTAVYYCARSAGVTDADFWGQGTLVTVSS
VL: DIQMTQSPSSVSASVGDRVTITCRASQGISSWLAWYQHKPGKAPKLLIYVASSLQSGVPSRFSGSGSGTDFTLTISSLQPEDFATYYCQQANSFPLTFGGGTKVEIK
notes: Fab
B8: in test [2], the Kd came out at 5.6 nM, the koff turned out to be 0.00059 s⁻¹ and the kon amounted to 105000 M⁻¹ s⁻¹.

B9: ZAP122m27 Fab (Fab, V domains shown)
VH: QVQLQESGPGLVKPSETLSLTCTVSGGSISSDFWGWIRQPPGKGLEWIGYISSRGSTNYNPSLKRRVTISVDTSRNQFSLKLSSVTAADTAVYYCARSAGVTDFDAWGQGTLVTVSS
VL: DIQMTQSPSSVSASVGDRVTITCRASQGISSWLAWYQHKPGKAPKLLIYVASSLQSGVPSRFSGSGSGTDFTLTISSLQPEDFATYYCQQANSFPLTFGGGTKVEIK
notes: Fab
Take B9: in test [2], the Kd is < 0.0242 nM, the koff was < 1e-05 s⁻¹ and the kon was 414000 M⁻¹ s⁻¹.

B10: ZAP122m24 Fab (Fab, V domains shown)
VH: QVQLQESGPGLVKPSETLSLTCTVSGGSISSDFWGWIRQPPGKGLEWIGYISSRGSTNYNPSLKRRVTISVDTSRNQFSLKLSSVTAADTAVYYCARSAGVTAFDFWGQGTLVTVSS
VL: DIQMTQSPSSVSASVGDRVTITCRASQGISSWLAWYQHKPGKAPKLLIYVASSLQSGVPSRFSGSGSGTDFTLTISSLQPEDFATYYCQQANSFPLTFGGGTKVEIK
notes: Fab
For the molecule B10, the binding result in test [2] was “no binding”.

B11: ZAP122p2 Fab (Fab, V domains shown)
VH: QVQLQESGPGLVKPSETLSLTCTVSGGSISSDFWGWIRQPPGKGLEWIGYISSRGSTNYNPSLKRRVTISVDTSRNQFSLKLSSVTAADTAVYYCARSAGVTDFDFWGQGTLVTVSS
VL: DIQMTQSPSSVSASVGDRVTITCRASQGISSWLAWYQHKPGKAPKLLIYVASSLQSGVPSRFSGSGSGTDFTLTISSLQPEDFATYYCQQASSFPLTFGGGTKVEIK
notes: Fab
With B11, in test [2], the Kd turned out to be 0.0328 nM, the koff was 1.14e-05 s⁻¹ and the kon was found to be 348000 M⁻¹ s⁻¹.

B12: ZAP122m21 Fab (Fab, V domains shown)
VH: QVQLQESGPGLVKPSETLSLTCTVSGGSISSDFWGWIRQPPGKGLEWIGYISSRGSTNYNPSLKRRVTISVDTSRNQFSLKLSSVTAADTAVYYCARSAAVTDFDFWGQGTLVTVSS
VL: DIQMTQSPSSVSASVGDRVTITCRASQGISSWLAWYQHKPGKAPKLLIYVASSLQSGVPSRFSGSGSGTDFTLTISSLQPEDFATYYCQQANSFPLTFGGGTKVEIK
notes: Fab
Regarding B12, in test [2], the Kd is 2.19 nM, the dissociation rate constant (koff) turned out to be 0.0011 s⁻¹ and the kon was 505000 M⁻¹ s⁻¹.
